Data from PMC5177531 (2016).
Non-standard residues stand in square brackets, D forms with d. No end group written: not given here. *: point of attachment. NMeF = CN[C@@H](Cc1ccccc1)C(=O)O; NHCH2CH2OH = OCCN*

Target: T1, mDOR-1 (Mus musculus, UniProt P32300)
T1 chain: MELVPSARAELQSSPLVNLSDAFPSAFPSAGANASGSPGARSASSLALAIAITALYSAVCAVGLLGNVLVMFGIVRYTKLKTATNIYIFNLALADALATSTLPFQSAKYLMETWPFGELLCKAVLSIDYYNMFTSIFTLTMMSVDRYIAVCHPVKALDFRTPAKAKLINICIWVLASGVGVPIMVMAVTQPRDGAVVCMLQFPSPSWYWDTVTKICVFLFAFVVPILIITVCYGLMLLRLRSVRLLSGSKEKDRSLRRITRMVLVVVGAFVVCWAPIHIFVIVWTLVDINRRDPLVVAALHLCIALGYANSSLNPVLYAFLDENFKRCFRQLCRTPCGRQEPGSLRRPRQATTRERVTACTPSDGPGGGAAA
Experiment: 125I-IBNtxA competition, CHO membranes

B1: DAMGO (peptide)
chain: Y[dA]G[NMeF][NHCH2CH2OH]
Question: For B1, which Ki is on record?
Answer: > 500 nM
